This note sets out measurements from the DeepSol protein solubility set.

This data set can be described thus: soluble on expression in E. coli; label from the status in PepcDB or PDB records.
As to “MLIRQAGPADNAQLLDFQQRHAMRGSMPLRFDRSPDYFALHHCHAADHRTWIAQSPEGELRGSASLVVRDGYLQGSAEPIAYLGDLRLMPDRRLSRSWMAEVQTRLADLSLQTGAQHAYCCIIRDNPLAIQSLLGRRRANPLKLAHWRGYSNVSVYGQRGLSSAPRTHAGVRVVRAEPRHLDALRAFLDSESSRQSFGCVFSETEFERRISHWPDFAIGSFLLAVDERENLLGCVAPWDAGKIKRIVVEQMPVAQQLLRMGYNAVAPLAGRPGIASPGNPLRDIYLTHLQVRQRDPEVFAALLDVAWAQVRKDYSLMQLCLYDQDPLWLAMRRYRSVSLPMDLYTAPCGSNTPVFTETCAAGVPGFEIYLV”, the “soluble on expression in E. coli” value is listed as “not soluble”.

“MLITISVARSENYYCVQVASSEKLEDLIPLFEKFKNMDNVRIEKIGGFYTLRIGFYLNKSDVLKILPEIKEKYRDAFVRVCEYDLSRVVFPKPEKVITLEQQEIEESKTTKENFLMLLEKNIEELKKLTEIIARGNTTKVKPFEKLESTVVEMYKQKEKSYKRAFPLYINGEFRYRGKALTGENLLGDKWYSYLGLKLSFFRRGFADFKYEKERAKFAKLFSEFDIQKEYTYLLAFQSQEEVFLKGLKYELGVVESEKNKTLSLLKDWVKFTESYDKSLGFPYRELIKKEELEGIESVSNGFFLKPMKINVEEFMKYYEKRKKDVEEYLKKFEIKTTDKWFYLRHTDLDVFARYYFAGKDGNTRDFWALGLRFELPIPYIITDLGKVDKLEILSFKERARLSYATTYSFLFDYISRINRNYSNIVNHLEQINVNFLEIEREIYFWKNGLREANYTLILRNLLDTYHRLEQLIYLKYINYVYIQKLIYFMDIKEEEIIRRILDG”: the “soluble on expression in E. coli” value is reported as “not soluble”.

Consider “MLITKNQAEKWFDNSLGKQFNPDLFYGFQCYDYANMFFMIATGERLQGLYAYNIPFDNKARIEKYGQIIKNYDSFLPQKLDIVVFPSKYGGGAGHVEIVESANLNTFTSFGQNWNGKGWTNGVAQPGWGPETVTRHVHYYDDPMYFIRLNFPDKVSVGDKAKSVIKQATAKKQAVIKPKKIMLVAGHGYNDPGAVGNGTNERDFIRKYITPNIAKYLRHAGHEVALYGGSSQSQDMYQDTAYGVNVGNNKDYGLYWVKSQGYDIVLEIHLDAAGESASGGHVIISSQFNADTIDKSIQDVIKNNLGQIRGVTPRNDLLNVNVSAEININYRLSELGFITNKKDMDWIKKNYDLYSKLIAGAIHGKPIGGLVAGNVKTSAKNQKNPPVPAGYTPDKNNVPYKKETGYYTVANVKGNNVRDGYSTNSRITGVLPNNATIKYDGAYCINGYRWITYIANSGQRRYIATGEVDKAGNRISSFGKFSAVLEHHHHHH”, for which the “soluble on expression in E. coli” value is on record as “not soluble”.

Turning to “MLKCVMSGSQVKVFGKAVQALSRISDEFWLDPSKKGLALRCVNSSRSAYGCVLFSPVFFQHYQWSALVKMSENELDTTLHLKCKLGMKSILPIFRCLNSLERNIEKCRIFTRSDKCKVVIQFFYRHGIKRTHNICFQESQPLQVIFDKNVCTNTLMIQPRLLADAIVLFTSSQEEVTLAVTPLNFCLKSSNEESMDLSNAVHSEMFVGSDEFDFFQIGMDTEITFCFKELKGILTFSEATHAPISIYFDFPGKPLALSIDDMLVEANFILATLADEQSRASSPQSLCLSQKRKRSDLIEKKAGKNVTGQALECISKKAAPRRLYPKETLTNISALENCGSPAMKRVDGDVSEVSESSVSNTEEVPGSLCLRKFSCMFFGAVSSDQQEHFNHPFDSLARASDSEEDMNNGSFSIFLEHHHHHH”, the “soluble on expression in E. coli” value is “not soluble”.

As to “MLKDEYGRVVTNLRIAVTKKCNLRCFYCHKEGESNPGEEISAERIVEIARAFKELGVRKLKITGGEPLLRKDLPDIILNLPEFEEISMTTNGILLEKYAEELRECGLSRVNVSLDTLDAEKYRWITGGGEVQKVVNGIEKACEVGLTPVKINMLVLGGVNDNEVDELLEFTNSFNRGNTKAILQVIELVPFPGFEKYFFDISTIEEKYARMATQRRVRAMHRRTQYFTPKGVIEFVKPMDNTAFCMHCNRMRVTSDGKLKPCLLRNETITIDGKHGEELARAIIETVRKREPYFKGLEHHHHHH”, the “soluble on expression in E. coli” value is recorded as “soluble”.

“MLKIATFNVNSIRSRLHIVIPWLKENKPDILCMQETKVENRKFPEADFHRIGYHVVFSGSKGRNGVAIASLEEPEDVSFGLDSEPKDEDRLIRAKIAGIDVINTYVPQGFKIDSEKYQYKLQWLERLYHYLQKTVDFRSFAVWCGDMNVAPEPIDVHSPDKLKNHVCFHEDARRAYKKILELGFVDVLRKIHPNERIYTFYDYRVKGAIERGLGWRGDAILATPPLAERCVDCYADIKPRLAEKPSDHLPLVAVFDV”: the “soluble on expression in E. coli” value was “soluble”.

As to “MLKIGIVGCGAIGNFITKKVLDGTIKNAKISAVYDRNFDKAKTLSERTGAKICSSIDDLVKEDLDLVVEAASIKAVEEIAEKSLINNKDVLIMSVGALADKKLFLKLRDLAKTVGRKIYLPSGAIGGLDAIKALRLGEIEEVVLKTTKPVAALEDALKNLGYKPEDIKNPVIVFEGDVFKAIKEFPANINVSVTLSIAAEFPAKVVIVADPNAKLNKHELFVKSSIGTLRVCIENVPFEENPRTSALAAYSAVRLIRDLAEPVKVGT”, the “soluble on expression in E. coli” value is “soluble”.

Turning to “MLKIQAYFNETADLPCQFANSQNQSLSELVVFWQDQENLVLNEVYLGKEKFDSVHSKYMGRTSFDSDSWTLRLHNLQIKDKGLYQCIIHHKKPTGMIRIHQMNSELSVLA”, the “soluble on expression in E. coli” value is “soluble”.

“MLKKHLTTQLFQKKKKKKLHLVLDLDHTLLHSVLVSDLSKREKYLLEETDSRQDLWRRNVDGYEFIIKLRPFLHEFLLEANKLFTMHVYTMGSSSYAKQVLKLIDPDKVYFGKRVITREASPFNKSLDLLAADKRRVVIVDDTVHVWPFHKRNLLQITKYVYFKVDGTKWDSYAEAKKDESQSNGSLANVLKFLEDVHKRFEEDLGFKDLRLLIPCRQCCY”: the “soluble on expression in E. coli” value is on record as “soluble”.

As for “MLKNTYIHIPGVGKALEQKIWASGIHTWDEFLEMEDRVLIPSVKKARICEGIKVSSSHLAAKDCFFFSQRLPSAEHWRAYSLFSDSVAFFDIETTGLSPCRDKITVVGIYNGNEVKTYVRGTNLEDLVEEFSRYRLLVSFNGARFDIPFIKSEFPEIEFKQLHIDLMYPLRRIGYGGGLKKIEKLLGICRSEDTDGMDGFDAVRLWKKYEKGDLEALNLLVKYNREDIVNLKTIIELTYPKMVENALKILEHHHHHH”, the “soluble on expression in E. coli” value is “not soluble”.

Turning to “MLKYSNHMAFKDLREYIEFMKKKGKLIEVDDEVSVDLEIAEITRKATYAHLPPLLFKRVKNYENWKIVSNIFYSIESLYEIFGTNKLESISEGFLSNLSNMPITFFDKIKSLREILGLGKVMPKAKSPSFKEEKNLDLTKIPAIKTWPKDAGRYLTFSITITKDPETDVHNLSVYRVQILNEKEAIIHWQAFKRGALTAKKYLEKGISKIPIAVVTGVDPAIAFTAASPVPHGIDKYMFAGILRGEGIDVAELDNQLLVPSHSEVVLTGYVDLNDMRLEGPFGDHMGYYTPADYYPVFKLERVYIREDPIFHVTSVGKPPLEDAWIGKAVERIFLPFAKMLVPELIDMNLPEYGLFTGIGIFSIKKYYPGQAKRVMMALWGTGQLSLLKIIIVVDQDIDVHDINQVIYAIAANVDPKRDVWVIENALTDSLDPSVPFPPLGSKLGIDATRKFKEEMGKEWPEEVRSDEVVAKKADQILNKIIKRYQTSLEHHHHHH”, the “soluble on expression in E. coli” value is on record as “not soluble”.

With “MLLAHISDTHFRSRGEKLYGFIDVNAANADVVSQLNALRERPDAVVVSGDIVNCGRPEEYQVARQILGSLNYPLYLIPGNHDDKALFLEYLQPLCPQLGSDANNMRCAVDDFATRLLFIDSSRAGTSKGWLTDETISWLEAQLFEGGDKPATIFMHHPPLPLGNAQMDPIACENGHRLLALVERFPSLTRIFCGHNHSLTMTQYRQALISTLPGTVHQVPYCHEDTDPYYDLSPASCLMHRQVGEQWVSYQHSLAHYAGPWLYDENISCPTEER”, the “soluble on expression in E. coli” value is given as “soluble”.

Regarding “MLLKPEEYIERLGEYKRDIYVLGKKIEDFVNHPNIRPTVEAMAYTYSIAEKYAPHSELVGEKVNRLNYVNQTFEDLIARYDYQRELSLKLATCNYRCTGCDAINAIYPATKALDEREGTDYHRRFLELLKEIQKKDYACTAALTDVKGDRGKRPSEQKDKYLRVVEKREDGIVVRGAKICQSGAFAADVNFVLPTQTFRPGEEEFAVVFAAMPEDEGIKYILQNTGIQAKQREGGKFEAGNKYGDRTTCMVVFDDVFIPWERVFVFEDLKAARDVVSYFAPSHRCVGAACKAGFIDSMAGAASLMLKTSGLENVSALQQKVAEMVAVSEGAFAISVGAAVKGANHNGCWLPNFQMANSGKVIGVEGFAKALMNLIDISGGIIGTSPSEFDLEMVGDFLRASEKFTAEQRLKIVKFIEFWTTSSHLVGAFHGGGSPTAALITLRFLMDLSSREEAVKNCIDF”, the “soluble on expression in E. coli” value is “not soluble”.

As to “MLLKSHHSGGRKTRFLTVLDVGSSKIVCLIACLRPLKHAHYLHGRTHSMEILGFGVQRSRGIKSGVVMDIFAAEQSIRLAVDAAEKMAGLVVDSVIVNFSSSRLQSALINGVVSLNGREVTKRDIRVAFADVSRKAFNAERHVVHSVPVSYVLDGDKGISDPVGMIGDFFGVDVHVVTAETAALRNLETCINRAHLSVEAMVVTPFASGLAVLMNDEAHLGAACIDFGGGTTTFSVFSEGKFVHANALAVGGHHVTLDVARGFSMSLPEAERLKVVYGSALVTSADERHMVNVTEIGNEHREIQYPRAVLGRIIRARVEEILEMVRDCLNRSGFGHIIGKRVILTGGASQLTGLPEMARTILGRNVRIGRPLGISRLPSLAKGAAFTSAVGLLIYPQLVGFEEKTMQVAVNHLSTGTRGYFQRVGQWLRESF”, the “soluble on expression in E. coli” value is “not soluble”.

For “MLLNEASDAIYWVNHKGLITYANPSAQILFGYEEVELKDKSISDLIVSKTDLFSTFSSNIIEEKGVVIQQEFVRKDNSTFYGEMSVRLFDDGSHQAIIRDITKGVIEQRLLLDRERKFKILVENAFDIIIVLSSDFKIKFISPAIKKMLGYEIDSVLGENSNKFIEFRDRVMIKEVLKNHGITYAINDLKLIHKNGQIIHCEVNAVNFLNDPLINGIIVNCHDISKRIQTENELINTNYELDSFVYKVSHDLKAPLRSMLGLINLSQKENTEDTVKLYLDMMVRSIHNMDIFIKDLTQFSRNSRMEVIKESIDFKELITKIENNLKYDDNARFISFERNISQQSLFYSDPNRVETIVSNLLSNAYKYHRFDSNNPYINVKIEVSETAACIVIKDNGSGIADEYHNKIFQMFFRASEKSQGSGLGLYIVKSAIDKLEGTITLHSIPDKESTFTVEIPNLLTR”, the “soluble on expression in E. coli” value is “not soluble”.

With “MLLQANRGLGLSAHIIDHCNLILKFPEGTNSTWYNAQFKVFEALEFKYNVCEAVLLWEQYRNMTTVLTREYLDVRPDGWLDYAAMRIAQLGADKCYNRTLCEEHLNVILPAKPPFHPRQFHKCAVVGNSGDLLKTEFGEEIDSHDAVFRDNEAPVNEKYAKYVGVKRDFRLVVRGAARNMIKILNGSDNEVLIIKSVTHRDFNEMIKRIPNPVYLFQGIVLRRGAKGTGMKSIELALSMCDIVDIYGFTVDPGYTEWTRYFSTPRKGHNPLQGRAYYQLLECLGVQITC”, the “soluble on expression in E. coli” value is on record as “not soluble”.

For “MLLQVHRLLFEKFYPWAGRDRLELVPHLSVWKGPKGAPRRTFFESPAMIERAVDYALSLASKKQGFMQKPGEVMGLLCFAHPFLDGNGRSILLFYMELSYRAGFAIDWASTRKDDYLQALDDEIHNPGKGHL”, the “soluble on expression in E. coli” value was “soluble”.

As for “MLLTCRFTAATSRLSACTRSFSIDFSHEKPAPHQLEHVTTRLTETVPLMFRRRMDYTFYRKDVVCDDQIFSVEKRGIEQLMSHFGMIGTLGQVFLPHVEMEMLSVAPVIDEGTVRCRWRVKYVSFTRIIMNPRLLRFDYRMQNLSWFDGYSVLTVDGNGEVYKVTLQKMQQDEQKSLLTSTTEKLKEKLAPSAANN”, the “soluble on expression in E. coli” value was “not soluble”.
